Tests used:
Experiment in all cases: pulldown
TRNAU1AP (Homo sapiens) = biological target: T1, TRNAU1AP (Homo sapiens) (UniProt Q9NX07); conditions: 20 nM protein, 1.5 uM RNA pool; 20 mM HEPES pH 7.8, 70 mM KCl, 10 mM NaCl, 10% glycerol, 2 mM DTT, 0.1 ug/uL BSA; 30 min, 4 C
T1 sequence: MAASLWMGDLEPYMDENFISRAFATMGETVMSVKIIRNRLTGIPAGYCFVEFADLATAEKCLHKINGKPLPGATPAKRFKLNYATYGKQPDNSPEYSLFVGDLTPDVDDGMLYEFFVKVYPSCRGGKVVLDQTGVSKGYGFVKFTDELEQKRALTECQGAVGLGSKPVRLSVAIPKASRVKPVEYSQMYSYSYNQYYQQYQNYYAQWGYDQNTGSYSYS

[1] = biological target: T2, T07F10.3 (Caenorhabditis elegans) (UniProt Q22318); conditions: 20 nM protein, 1.5 uM RNA pool; 20 mM HEPES pH 7.8, 70 mM KCl, 10 mM NaCl, 10% glycerol, 2 mM DTT, 0.1 ug/uL BSA; 30 min, 4 C
T2 sequence: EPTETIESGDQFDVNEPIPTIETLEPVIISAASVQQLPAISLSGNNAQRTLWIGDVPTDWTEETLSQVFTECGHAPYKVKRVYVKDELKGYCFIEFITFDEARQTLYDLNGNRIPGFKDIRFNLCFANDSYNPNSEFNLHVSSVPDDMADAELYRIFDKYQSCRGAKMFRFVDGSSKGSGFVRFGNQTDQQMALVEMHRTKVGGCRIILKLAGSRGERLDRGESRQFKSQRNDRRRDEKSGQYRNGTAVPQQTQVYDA

FUBP1 (Homo sapiens) = biological target: T3, FUBP1 (Homo sapiens) (UniProt A0ACI8RIE7); conditions: 20 nM protein, 1.5 uM RNA pool; 20 mM HEPES pH 7.8, 70 mM KCl, 10 mM NaCl, 10% glycerol, 2 mM DTT, 0.1 ug/uL BSA; 30 min, 4 C
T3 sequence: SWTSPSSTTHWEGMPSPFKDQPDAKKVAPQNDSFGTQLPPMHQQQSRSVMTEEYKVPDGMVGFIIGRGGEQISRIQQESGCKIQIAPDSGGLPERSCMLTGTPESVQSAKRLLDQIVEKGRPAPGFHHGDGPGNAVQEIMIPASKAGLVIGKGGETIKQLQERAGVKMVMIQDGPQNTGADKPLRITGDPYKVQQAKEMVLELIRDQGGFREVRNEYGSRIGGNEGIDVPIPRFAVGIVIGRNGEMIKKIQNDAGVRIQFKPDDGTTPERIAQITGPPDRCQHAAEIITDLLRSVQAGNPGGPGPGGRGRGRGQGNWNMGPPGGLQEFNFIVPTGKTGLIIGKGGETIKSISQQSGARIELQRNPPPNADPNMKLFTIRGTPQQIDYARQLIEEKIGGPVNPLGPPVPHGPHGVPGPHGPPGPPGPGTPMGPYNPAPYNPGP

LIN28A (Homo sapiens) = biological target: T4, LIN28A (Homo sapiens) (UniProt Q9H9Z2); conditions: 20 nM protein, 1.5 uM RNA pool; 20 mM HEPES pH 7.8, 70 mM KCl, 10 mM NaCl, 10% glycerol, 2 mM DTT, 0.1 ug/uL BSA; 30 min, 4 C (protocol of this paper; not …); cited from earlier work
T4 sequence: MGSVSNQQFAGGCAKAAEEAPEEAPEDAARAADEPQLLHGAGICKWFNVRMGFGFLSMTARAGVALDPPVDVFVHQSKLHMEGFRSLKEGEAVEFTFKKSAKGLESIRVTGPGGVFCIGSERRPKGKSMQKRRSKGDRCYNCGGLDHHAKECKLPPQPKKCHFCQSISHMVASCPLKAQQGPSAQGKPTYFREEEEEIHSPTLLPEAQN

[2] = biological target: T5, ENSXETG00000023721 (Xenopus tropicalis) (UniProt A0A803KLF2); conditions: 20 nM protein, 1.5 uM RNA pool; 20 mM HEPES pH 7.8, 70 mM KCl, 10 mM NaCl, 10% glycerol, 2 mM DTT, 0.1 ug/uL BSA; 30 min, 4 C
T5 sequence: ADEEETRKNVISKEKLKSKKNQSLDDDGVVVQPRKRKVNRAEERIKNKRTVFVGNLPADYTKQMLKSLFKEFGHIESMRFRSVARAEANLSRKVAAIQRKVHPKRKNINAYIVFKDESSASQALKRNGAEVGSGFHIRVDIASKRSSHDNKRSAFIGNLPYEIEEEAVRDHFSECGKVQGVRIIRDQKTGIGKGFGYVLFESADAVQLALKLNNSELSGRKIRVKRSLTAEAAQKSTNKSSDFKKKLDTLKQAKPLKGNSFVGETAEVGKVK

RBM45 (Homo sapiens) = biological target: T6, RBM45 (Homo sapiens) (UniProt Q8IUH3); conditions: 20 nM protein, 1.5 uM RNA pool; 20 mM HEPES pH 7.8, 70 mM KCl, 10 mM NaCl, 10% glycerol, 2 mM DTT, 0.1 ug/uL BSA; 30 min, 4 C
T6 sequence: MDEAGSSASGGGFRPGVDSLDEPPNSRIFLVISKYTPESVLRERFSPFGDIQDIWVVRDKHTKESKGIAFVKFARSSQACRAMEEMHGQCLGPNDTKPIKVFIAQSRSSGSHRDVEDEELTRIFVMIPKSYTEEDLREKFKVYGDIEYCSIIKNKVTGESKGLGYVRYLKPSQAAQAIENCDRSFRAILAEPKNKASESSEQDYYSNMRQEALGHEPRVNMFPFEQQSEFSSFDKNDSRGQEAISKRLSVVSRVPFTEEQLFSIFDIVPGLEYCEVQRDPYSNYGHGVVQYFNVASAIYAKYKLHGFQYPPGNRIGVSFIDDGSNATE

[3] = biological target: T7, tdp-1 (Caenorhabditis elegans) (UniProt D0VWM8); conditions: 20 nM protein, 1.5 uM RNA pool; 20 mM HEPES pH 7.8, 70 mM KCl, 10 mM NaCl, 10% glycerol, 2 mM DTT, 0.1 ug/uL BSA; 30 min, 4 C
T7 sequence: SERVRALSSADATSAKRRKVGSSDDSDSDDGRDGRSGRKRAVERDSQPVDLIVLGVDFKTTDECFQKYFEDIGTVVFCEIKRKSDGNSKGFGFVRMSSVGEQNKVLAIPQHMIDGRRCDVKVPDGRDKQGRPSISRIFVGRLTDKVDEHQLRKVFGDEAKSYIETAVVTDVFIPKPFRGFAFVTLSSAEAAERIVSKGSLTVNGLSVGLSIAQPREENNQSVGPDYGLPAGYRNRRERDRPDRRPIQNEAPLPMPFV

[4] = biological target: T8, PFI0820c (Plasmodium falciparum) (UniProt Q8I2Y5); conditions: 20 nM protein, 1.5 uM RNA pool; 20 mM HEPES pH 7.8, 70 mM KCl, 10 mM NaCl, 10% glycerol, 2 mM DTT, 0.1 ug/uL BSA; 30 min, 4 C
T8 sequence: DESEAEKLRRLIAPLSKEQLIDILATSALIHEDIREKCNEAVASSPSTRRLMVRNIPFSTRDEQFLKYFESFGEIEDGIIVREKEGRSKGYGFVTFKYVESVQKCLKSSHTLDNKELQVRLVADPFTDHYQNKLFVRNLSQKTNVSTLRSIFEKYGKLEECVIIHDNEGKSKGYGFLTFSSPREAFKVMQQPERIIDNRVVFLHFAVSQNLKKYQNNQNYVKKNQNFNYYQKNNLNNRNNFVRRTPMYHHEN

Sequence: AAUUU [RNAcompete motif RNCMPT00813]
- binding signal (z-score (mean of top ten 7-mers)) (TRNAU1AP (Homo sapiens)): 7.72

Sequence: AUAAUAA [RNAcompete motif RNCMPT00821]
- binding signal (z-score (mean of top ten 7-mers)) [1]: 8.08

Sequence: AUGUAU [RNAcompete motif RNCMPT00822]
- binding signal (z-score (mean of top ten 7-mers)) (FUBP1 (Homo sapiens)): 7.78

Sequence: CGGAGG [RNAcompete motif RNCMPT00162]
- binding signal (z-score (mean of top ten 7-mers)) (LIN28A (Homo sapiens)): 6.24

Sequence: GAACG [RNAcompete motif RNCMPT00828]
- binding signal (z-score (mean of top ten 7-mers)) [2]: 10.8

Sequence: GACAGA [RNAcompete motif RNCMPT00805]
- binding signal (z-score (mean of top ten 7-mers)) (RBM45 (Homo sapiens)): 12.2

Sequence: GAGAGA [RNAcompete motif RNCMPT00816]
- binding signal (z-score (mean of top ten 7-mers)) [3]: 11.6

Sequence: GAGAGAA [RNAcompete motif RNCMPT00793]
- binding signal (z-score (mean of top ten 7-mers)) [4]: 6.18
